Assay results taken from patent US20100184663A1.
Ends that are not written are not given here.

Key:
D-IZN17 (HIV-1) [1] = biological target: D-IZN17 (HIV-1) (UniProt P04578); assay: clonal phage binding assay in the presence of 25 µM L-2K-PIE2 competitor
D-IZN17 (HIV-1) [2] = biological target: D-IZN17 (HIV-1) (UniProt P04578); assay: clonal phage binding assay, solution phase, D-IZN17 pulled down on streptavidin beads

## GACDYPEWRWLCAAA [PIE2-AAA-φ]
D-IZN17 (HIV-1) [1]
  fold binding relative to wt PIE2-φ: 70 fold

B1: PIE8-φ (peptide)
peptide: GACDYKEWQWLCAA
modifications: not fully specified (C-terminus); cysteine pairing not given here; also: displayed on M13 g3 protein
D-IZN17 (HIV-1) [1]
  fold binding relative to PIE2-φ: 2 fold

B2: PIE2-φ (peptide)
peptide: GACDYPEWRWLCAA
modifications: not fully specified (C-terminus); cysteine pairing not given here; also: displayed on M13 g3 protein
D-IZN17 (HIV-1) [1]
  fold binding relative to PIE9-φ: 3 fold
D-IZN17 (HIV-1) [2]
  fold binding relative to PIE1-φ: 5 fold

B3: PIE7-φ (peptide)
peptide: GACDYPEWQWLCAA
modifications: not fully specified (C-terminus); cysteine pairing not given here; also: displayed on M13 g3 protein
D-IZN17 (HIV-1) [1]
  fold binding relative to PIE2-φ: 10 fold
